The text below walks through data of patent US20210261685A1 (Alector, published 2021).

A word on the Kd: it is the free concentration of one partner at which half of the binding sites on the other are occupied at equilibrium, for simple one-to-one binding.

In assay [1] the target is T1, human MerTK extracellular domain (ECD), recombinant (human, UniProt Q12866 21-505).
T1 construct: also called huMerTK; not shown: polyHis tag or TEVS/Thrombin/murine IgG2a Fc tag
T1 sequence: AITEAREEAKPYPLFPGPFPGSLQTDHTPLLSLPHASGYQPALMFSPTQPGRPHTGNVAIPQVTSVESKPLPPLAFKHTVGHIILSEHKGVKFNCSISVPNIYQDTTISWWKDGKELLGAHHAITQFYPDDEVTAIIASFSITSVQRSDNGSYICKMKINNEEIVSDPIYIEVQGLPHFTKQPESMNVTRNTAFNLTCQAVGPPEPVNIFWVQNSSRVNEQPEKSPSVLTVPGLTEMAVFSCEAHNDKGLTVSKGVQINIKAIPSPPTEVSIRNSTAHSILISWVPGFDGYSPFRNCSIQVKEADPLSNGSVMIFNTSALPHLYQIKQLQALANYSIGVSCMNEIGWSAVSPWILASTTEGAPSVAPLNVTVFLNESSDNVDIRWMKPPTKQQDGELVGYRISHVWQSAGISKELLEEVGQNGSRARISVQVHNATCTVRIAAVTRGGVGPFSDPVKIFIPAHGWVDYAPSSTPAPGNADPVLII
Briefly: SPR, Carterra LSA, antibody immobilised. The method, then: (§1) Binding kinetics of human anti-MerTK IgG1 LALAPS antibodies of the present disclosure to human, cyno, and murine MerTK were evaluated using a Carterra LSA instrument (Carterra, Salt Lake City, Utah). Briefly, anti-MerTK antibodies were prepared by diluting to 10 μg/ml in 10 mM Acetate, pH 4.25 (Carterra), at 300 μl/well. A HC200M sensor chip (Carterra) was activated using the single channel flow cell with a 7-minute injection of a 1:1:1 mixture of 100 mM MES pH 5.5, 100 mM sulfo-NHS, 400 mM EDC (all reconstituted in MES pH 5.5; 100 μl of each mixed in vial immediately before running assay). After switching to the multi-channel array flow cell, the antibodies were injected over the activated chip in a 96-spot array for 15 minutes. The remaining unconjugated active groups on the chip were then blocked by injecting 1M Ethanolamine pH 8.5 (Carterra) for 7 minutes using the single channel flow cell.
(§2) After priming with running buffer (HBS-TE, Carterra) with 0.5 mg/ml BSA (Sigma), the immobilized anti-MerTK antibodies were tested for their ability to bind to several forms of recombinant MerTK extracellular domain, including human, cynomolgus, and mouse orthologs as described above. Estimates of affinity were generated by injecting each analyte over the entire antibody array using the single channel flow cell. MerTK analytes were diluted to 33.3, 100, and 300 nM in running buffer, and injected in serial from lowest to highest concentration without regeneration. Two buffer blanks were run between each series (one species per series). Data were processed and analyzed using NextGenKIT high-throughput kinetics analysis software (Carterra).
(§3) The equilibrium dissociation constants (KD) were then calculated from the fitted association and dissociation rate constants (k-on and k-off) for anti-MerTK antibodies of the present disclosure. Binding kinetic analysis was also performed on anti-MerTK antibodies H1 (BioLegend, Clone ID: 590H11G1E3), H2 (R&D systems, Clone ID: 125518), M6 (WO2016/106221), and CDX AB2000-A7 hIgG1 (WO2019/084307).
(In general: SPR reads the build-up and loss of mass on a sensor chip optically.)

Assay [2] addresses T2, murine MerTK extracellular domain (ECD), recombinant (mouse, UniProt Q60805 19-497).
T2 construct: also called moMerTK; mouse MerTK; not shown: polyHis tag or TEVS/Thrombin/murine IgG2a Fc tag
T2 sequence: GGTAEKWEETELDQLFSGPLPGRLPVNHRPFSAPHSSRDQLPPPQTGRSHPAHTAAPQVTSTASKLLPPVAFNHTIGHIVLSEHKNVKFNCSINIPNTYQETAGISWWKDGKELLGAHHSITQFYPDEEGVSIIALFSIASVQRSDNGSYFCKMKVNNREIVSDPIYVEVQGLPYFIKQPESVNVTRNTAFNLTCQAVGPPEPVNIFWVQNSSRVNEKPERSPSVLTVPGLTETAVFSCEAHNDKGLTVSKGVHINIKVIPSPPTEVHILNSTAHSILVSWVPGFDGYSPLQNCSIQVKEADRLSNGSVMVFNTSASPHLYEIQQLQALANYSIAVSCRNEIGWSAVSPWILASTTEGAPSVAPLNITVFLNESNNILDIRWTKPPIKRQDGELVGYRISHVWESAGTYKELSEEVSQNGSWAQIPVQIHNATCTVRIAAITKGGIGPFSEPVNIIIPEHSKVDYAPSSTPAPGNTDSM
Nature of the assay: SPR, Carterra LSA, antibody immobilised. The method, then: as §1, §2, §3

For assay [3], the target named is T3, cyno MerTK extracellular domain (ECD), recombinant (cynomolgus monkey, UniProt Q12866 21-505 (human entry)).
T3 construct: also called cynomolgus MerTK; not shown: polyHis tag or TEVS/Thrombin/murine IgG2a Fc tag
T3 chain: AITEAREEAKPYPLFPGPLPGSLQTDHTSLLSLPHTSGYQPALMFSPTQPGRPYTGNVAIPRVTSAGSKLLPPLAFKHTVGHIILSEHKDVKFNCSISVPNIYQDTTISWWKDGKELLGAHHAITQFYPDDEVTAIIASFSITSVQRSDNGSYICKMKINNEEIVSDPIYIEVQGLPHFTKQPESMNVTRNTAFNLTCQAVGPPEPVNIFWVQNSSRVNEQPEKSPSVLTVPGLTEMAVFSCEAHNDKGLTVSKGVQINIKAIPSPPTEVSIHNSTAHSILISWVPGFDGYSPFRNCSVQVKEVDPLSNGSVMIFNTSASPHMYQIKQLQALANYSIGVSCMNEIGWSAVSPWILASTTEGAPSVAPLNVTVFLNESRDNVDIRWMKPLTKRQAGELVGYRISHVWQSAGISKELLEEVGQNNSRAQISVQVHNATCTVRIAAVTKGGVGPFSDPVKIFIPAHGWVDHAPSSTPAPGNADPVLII
Briefly: SPR, Carterra LSA, antibody immobilised; LB = Low binding. How it is done: as §1
After priming with running buffer (HBS-TE, Carterra) with 0.5 mg/ml BSA (Sigma), the immobilized anti-MerTK antibodies were tested for their ability to bind to several forms of recombinant MerTK extracellular domain, including human, cynomolgus, and mouse orthologs as described above. […] Data were processed and analyzed using NextGenKIT high-throughput kinetics analysis software (Carterra).

In assay [4] the target is T4, human Axl ECD construct (Full Axl) with linker+His+Avi tag (human, UniProt P30530 26-451).
T4 construct: tested as Expi293 supernatant; also called ECD domain of human Axl
T4 sequence: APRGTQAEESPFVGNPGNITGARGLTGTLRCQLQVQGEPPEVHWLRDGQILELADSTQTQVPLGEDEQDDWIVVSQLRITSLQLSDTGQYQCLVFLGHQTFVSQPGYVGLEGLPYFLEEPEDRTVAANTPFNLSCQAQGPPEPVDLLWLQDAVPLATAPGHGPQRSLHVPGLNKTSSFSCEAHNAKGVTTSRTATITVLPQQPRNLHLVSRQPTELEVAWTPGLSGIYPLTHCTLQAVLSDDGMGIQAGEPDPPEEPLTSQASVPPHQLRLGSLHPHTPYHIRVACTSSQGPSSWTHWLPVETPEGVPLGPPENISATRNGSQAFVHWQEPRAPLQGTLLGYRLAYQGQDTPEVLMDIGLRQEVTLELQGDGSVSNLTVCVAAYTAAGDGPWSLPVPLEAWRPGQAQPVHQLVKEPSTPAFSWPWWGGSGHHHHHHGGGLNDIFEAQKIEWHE
Nature of the assay: SPR, Carterra LSA, antibody immobilised, construct supernatant injected. The method, then:
Binding of anti-MerTK antibodies of the present disclosure to these domain-swapped chimera or deletion mutants (prepared as described above) was tested by Surface Plasmon Resonance (SPR) using Carterra LSA. Purified anti-MerTK antibodies were immobilized in duplicate on a HC30M chip (Carterra) by amine coupling, following the manufacturer's instructions (described previously). Supernatants containing the constructs were diluted 1:1 with running buffer containing 0.5 mg/mL BSA (HBS-TE, Carterra) and injected over the immobilized antibodies. The surface was regenerated with 10 mM Glycine pH2.0 after each construct injection. Sensorgrams were analyzed using Carterra Epitope software to identify patterns of construct binding. Loss of binding to MerTK constructs with domains deleted or swapped in from Axl and/or gain of binding to Axl constructs with MerTK domains swapped in were evaluated. Data from these studies was used to construct a domain binding map for anti-MerTK antibodies and their binding to various domains of human MerTK.

B1: MTK-22 (antibody, human IgG1, V domains shown)
VH: QVQLQQPGADLVEPGASVKLSCKASGYTFTSYWMHWVKQRPGQGLEWIGEIDPSDSSSNYNQKFKGKATLTVDKSSSTAYMHLNSLTSEDSAVYYCARRYYYGSLYFDNWGQGTTLTVSS
VL: DVVMTQSHKFMSTSVGDRVSITCKASQDVGTAIAWYQQKPGQSPKLLIYWASTRHTGVPDRFTGSRSGTVFTLTISNVQSEDLADYFCQQYTSYPLTFGSGTKLEIK
In the case of B1, the Kd in assay [1] amounted to 54 nM. For the same molecule, the binding result in assay [2] is recorded as “no binding (tested: 300 nM)”; in assay [3] it was “binds”; in assay [4], “no binding”.

B2: MTK-25 (antibody, human IgG1, V domains shown)
VH: EVKLVESEGGLVQPGSSMKLSCTASGFTFSDYYMAWVRQVPEKGLEWVANINYEGSSTYYLGSLKSRFIISRDNAENILYLQMSSLKSEDTATYYCARYYYGSVDYWGQGTTLTVSS
VL: DIVMTQSQKFMSTSVGDRVSITCKASQNVRTTVAWYQQKPGQSPKTLIYLASNRHTGVPDRFTGSGSGTDFTLTISNVQSEDLADYFCLQLWNYPWTFGGGTKLEIK
Turning to B2, the binding result in assay [4] is reported as “no binding”.
